Tests used:
[1] = molecular target: T1, green fluorescent protein (Aequorea victoria (assumed; GFP variant …, UniProt P42212 = GFP); experiment: SPR; Biacore T-200, multicycle; 265-274 RU of recombinant GFP immobilised on CM5 chip; Nbs flowed in five dilutions; HBS-EP+ buffer, 25 °C, 30 μL/min; conditions: both partners purified
T1 construct: green fluorescent protein (GFP, 27 kDa); the GFP construct may be there; also called GFP; recombinant GFP; source: E. coli BL21 (DE3), purified (Ni-NTA agarose)

[2] = molecular target: T1, green fluorescent protein; experiment: as above; conditions: both partners purified; remark: listed apart in the source

B1: anti-GFP mutant nanobody Y37A without peptide barcode (VHH)
VHH: QVQLVESGGALVQPGGSLRLSCAASGFPVNRYSMRWARQAPGKEREWVAGMSSAGDRSSYEDSVKGRFTISRDDARNTVYLQMNSLKPEDTAVYYCNVNVGFEYWGQGTQVTVSS
notes: as the VHH chain of m2 with the stated change; source: P. pastoris, purified (Ni-NTA agarose)
[1]
  Kd: 16.4 nM
  koff: 0.0759 s⁻¹
  kon: 4.62e+06 M⁻¹ s⁻¹

B2: anti-GFP mutant nanobody R57A without peptide barcode (VHH)
VHH: QVQLVESGGALVQPGGSLRLSCAASGFPVNRYSMRWYRQAPGKEREWVAGMSSAGDASSYEDSVKGRFTISRDDARNTVYLQMNSLKPEDTAVYYCNVNVGFEYWGQGTQVTVSS
notes: as the VHH chain of m2 with the stated change; source: Pichia pastoris GS115, culture medium, purified (His SpinTrap)
[2]
  Kd: 0.02 nM
  koff: 6.72e-05 s⁻¹
  kon: 3.42e+06 M⁻¹ s⁻¹

B3: anti-GFP mutant nanobody E103A without peptide barcode (VHH)
VHH: QVQLVESGGALVQPGGSLRLSCAASGFPVNRYSMRWYRQAPGKEREWVAGMSSAGDRSSYEDSVKGRFTISRDDARNTVYLQMNSLKPEDTAVYYCNVNVGFAYWGQGTQVTVSS
notes: as for B1
[1]
  binding result: no binding

B4: anti-GFP mutant nanobody G50A without peptide barcode (VHH)
VHH: QVQLVESGGALVQPGGSLRLSCAASGFPVNRYSMRWYRQAPGKEREWVAAMSSAGDRSSYEDSVKGRFTISRDDARNTVYLQMNSLKPEDTAVYYCNVNVGFEYWGQGTQVTVSS
notes: as for B1
[1]
  binding result: no binding

B5: anti-GFP mutant nanobody R35A without peptide barcode (VHH)
VHH: QVQLVESGGALVQPGGSLRLSCAASGFPVNRYSMAWYRQAPGKEREWVAGMSSAGDRSSYEDSVKGRFTISRDDARNTVYLQMNSLKPEDTAVYYCNVNVGFEYWGQGTQVTVSS
notes: as for B1
[1]
  binding result: no binding

B6: anti-GFP mutant nanobody F102A without peptide barcode (VHH)
VHH: QVQLVESGGALVQPGGSLRLSCAASGFPVNRYSMRWYRQAPGKEREWVAGMSSAGDRSSYEDSVKGRFTISRDDARNTVYLQMNSLKPEDTAVYYCNVNVGAEYWGQGTQVTVSS
notes: as for B2
[2]
  Kd: 0.121 nM
  koff: 0.000628 s⁻¹
  kon: 5.2e+06 M⁻¹ s⁻¹

B7: anti-GFP mutant nanobody W47A without peptide barcode (VHH)
VHH: QVQLVESGGALVQPGGSLRLSCAASGFPVNRYSMRWYRQAPGKEREAVAGMSSAGDRSSYEDSVKGRFTISRDDARNTVYLQMNSLKPEDTAVYYCNVNVGFEYWGQGTQVTVSS
notes: as for B1
[1]
  Kd: 0.722 nM
  koff: 0.00606 s⁻¹
  kon: 8.39e+06 M⁻¹ s⁻¹

From PMC8563947 (Scientific Reports, 2021)
